B1: G2(1G07) scFv (scFv, V domains shown)
VH: QVQLVQSGAEVKKPGASVKVSCKASGGTFSNYAINWVRQAPGQGLEWMGWISPYSGGTNYAQKFQGRVTMTRDTSTSTVYMELSSLRSEDTAVYYCARDSGSYFDYWGQGTLVTVSS
VL: DIQMTQSPSSLSASVGDRVTITCQASQDISNYLNWYQQKPGKAPKLLIYAASTLQSGVPSRFSGSGSGTDFTLTISSLQPEDFATYYCQQTYAIPLTFGGGTKVEIK
B2: G2(1C03) scFv (scFv, V domains shown)
VH: QVQLVQSGAEVKKPGASVKVSCKASGYTFTTYYMHWVRQAPGQGLEWMGWINPNSGGTNYAQKFQGRVTMTRDTSTSTVYMELSSLRSEDTAVYYCARSDWFDPWGQGTLVTVSS
VL: DIQMTQSPSSLSASVGDRVTITCRASQSVSNWLAWYQQKPGKAPKLLIYAASSLQSGVPSRFSGSGSGTDFTLTISSLQPEDFATYYCQQSYSTPTFGQGTKLEIK
B3: G2(2A10) scFv (scFv, V domains shown)
VH: EVQLLESGAEVKKPGASVKVSCKASGYSFTDYIVHWVRQAPGQGLEWMGWINPYSGGTKYAQKFQGRVTMTRDTSTSTVYMELSSLRSEDTAVYYCARVLQEGMDVWGQGTLVTVSS
VL: DIQMTQSPSSLSASVGDRVTITCRASQSISSYLNWYQQKPGKAPKLLIYGVSSLQSGVPSRFSGSGSGTDFTLTISSLQPEDFATYYCQQSYSNPTFGQGTKVEIK
B4: G2(2E07) scFv (scFv, V domains shown)
VH: QVQLVQSGAEVKKPGASVKVSCKASGGTFSSATISWVRQAPGQGLEWMGWIYPNSGGTVYAQKFQGRVTMTRDTSTSTVYMELSSLRSEDTAVYYCAATEWLGVWGQGTTVTVSS
VL: DIQMTQSPSSLSASVGDRVTITCRASQSISTWLAWYQQKPGKAPKLLIYAASSLRSGVPSRFSGSGSGTDFTLTISSLQPEDFATYYCQQSYNTPYTFGQGTKLEIK
B5: G2(1H10) scFv (scFv, V domains shown)
VH: QVQLVQSGAEVKKPGASVKVSCKASGGTFSSYAISWVRQAPGQGLEWMGWINPNNGGTNYAQKFQGRVTMTRDTSTSTVYMELSSLRSEDTAVYYCARDSGVGMDVWGQGTTVTVSS
VL: DIQMTQSPSSLSASVGDRVTITCRASQSISKWLAWYQQKPGKAPKLLIYAASSLQSGVPSRFSGSGSGTDFTLTISSLQPEDFATYYCQQSYSAPYTFGQGTKVEIK
B6: G2(1C02) scFv (scFv, V domains shown)
VH: QVQLVQSGAEVKKPGASVKVSCKASGYTFTSYGISWVRQAPGQGLEWMGWINPNSGGTNYAQKFQGRVTMTRDTSTSTVYMELSSLRSEDTAVYYCARGWELGYWGQGTLVTVSS
VL: DIQMTQSPSSLSASVGDRVTITCRASQSISNWLAWYQQKPGKAPKLLIYAASSLQSGVPSRFSGSGSGTDFTLTISSLQPEDFATYYCQQSYSAPYTFGPGTKVDIK
B7: G2(2H10) scFv (scFv, V domains shown)
VH: QVQLVQSGAEVKKPGASVKVSCKASGYSFTRYNMHWVRQAPGQGLEWMGWINPNSGGTNYAQKFQGRVTMTRDTSTSTVYMELSSLRSEDTAVYYCARDGYSGLDVWGKGTTVTVSS
VL: DIQMTQSPSSLSASVGDRVTITCRASQSISSWLAWYQQKPGKAPKLLIYGASSLQSGVPSRFSGSGSGTDFTLTISSLQPEDFATYYCQQSYSVPYSFGQGTKLEIK
B8: G2(1F12) scFv (scFv, V domains shown)
VH: QVQLVQSGAEVKKPGASVKVSCKASGYTFTDYYMHWVRQAPGQGLEWMGWIYPNTGGTNYAQKFQGRVTMTRDTSTSTVYMELSSLRSEDTAVYYCARDYGGYVDYWGQGTLVTVSS
VL: DIQMTQSPSSLSASVGDRVTITCQASQDIGSWLAWYQQKPGKAPKLLIYATSSLQSGVPSRFSGSGSGTDFTLTISSLQPEDFATYYCQQSYSTPYTFGQGTKLEIK
B9: G2(2C06) scFv (scFv, V domains shown)
VH: QVQLVQSGAEVKKPGASVKVSCKSSGYSFDSYVVNWVRQAPGQGLEWMGWINPNSGGTNYAQKFQGRVTMTRDTSTSTVYMELSSLRSEDTAVYYCARDWVLDYWGQGTLVTVSS
VL: DIQMTQSPSSLSASVGDRVTITCRASQTISSWLAWYQQKPGKAPKLLIYAASSLQSGVPSRFSGSGSGTDFTLTISSLQPEDFATYYCQQSYSTPFTFGPGTKVDIK
B10: G2(1G12) scFv (scFv, V domains shown)
VH: QVQLVQSGAEVKKPGASVKVSCKASGYTFTSYLMHWVRQAPGQGLEWMGWISPNSGGTNYAQKFQGRVTMTRDTSTSTVYMELSSLRSEDTAVYYCARGDWFDPWGQGTLVTVSS
VL: DIQMTQSPSSLSASVGDRVTITCQASQDISNYLNWYQQKPGKAPKLLIYGASRLQSGVPSRFSGSGSGTDFTLTISSLQPEDFATYYCQQSYSTPYTFGQGTKLEIK
B11: G2(2B08) scFv (scFv, V domains shown)
VH: QVQLVQSGAEVKKPGASVKVSCKASGYTLTSHLIHWVRQAPGQGLEWMGWINPNSGGTNYAQKFQGRVTMTRDTSTSTVYMELSSLRSEDTAVYYCARERRSGMDVWGQGTTVTVSS
VL: DIQMTQSPSSLSASVGDRVTITCRASQGISNYLAWYQQKPGKAPKLLIYAASRLESGVPSRFSGSGSGTDFTLTISSLQPEDFATYYCQQSYSIPLTFGGGTKVEIK
B12: G2(1C09) scFv (scFv, V domains shown)
VH: QVQLVQSGAEVKKPGASVKVSCKASGYTFSSYNMHWVRQAPGQGLEWMGWINGNTGGTNYAQKFQGRVTMTRDTSTSTVYMELSSLRSEDTAVYYCARGVNVDDFDYWGQGTLVTVSS
VL: DIQMTQSPSSLSASVGDRVTITCRASQTISNYLNWYQQKPGKAPKLLIYAASNLQSGVPSRFSGSGSGTDFTLTISSLQPEDFATYYCQQSYSTPQTFGQGTKVEIK
B13: G2(2E03) scFv (scFv, V domains shown)
VH: EVQLLQSGAEVKKPGSSVKVSCKASGGTFSSYAISWVRQAPGQGLEWMGWINPNSGGTISAPNFQGRVTMTRDTSTSTVYMELSSLRSEDTAVYYCARANWLDYWGQGTLVTVSS
VL: DIQMTQSPSSLSASVGDRVTITCRASQSISRWLAWYQQKPGKAPKLLIYAASTVQSGVPSRFSGSGSGTDFTLTISSLQPEDFATYYCQQSYSTPYTFGQGTKLEIK
B14: G2(1D07) scFv (scFv, V domains shown)
VH: QVQLVQSGAEVKKPGASVKVSCKASGYTFTSYGISWVRQAPGQGLEWMGWISAYNGYTNYAQNLQGRVTMTRDTSTSTVYMELSSLRSEDTAVYYCARDQFYGGNSGGHDYWGQGTLVTVSS
VL: DIQMTQSPSSLSASVGDRVTITCQASQDISNYLNWYQQKPGKAPKLLIYAASSLQSGVPSRFSGSGSGTDFTLTISSLQPEDFATYYCQQSYSTPLTFGGGTKLEIK
B15: G2(1D03) scFv (scFv, V domains shown)
VH: QVQLVQSGAEVKKPGASVKVSCKASGYTFTRYTINWVRQAPGQGLEWMGWINPNSGGANYAQKFQGRVTMTRDTSTSTVYMELSSLRSEDTAVYYCARGDWFDPWGQGTLVTVSS
VL: DIQMTQSPSSLSASVGDRVTITCRASQSISTWLAWYQQKPGKAPKLLIYAASTLQSGVPSRFSGSGSGTDFTLTISSLQPEDFATYYCQQSYSTPYTFAQGTKLEIK
B16: G2(1E05) scFv (scFv, V domains shown)
VH: QVQLVQSGAEVKKPGASVKVSCKASGYTFTDYNMHWVRQAPGQGLEWMGWMNPNSGGTNYAQKFQGRVTMTRDTSTSTVYMELSSLRSEDTAVYYCAREEDYWGQGTLVTVSS
VL: DIQMTQSPSSLSASVGDRVTITCRASQSIGRWLAWYQQKPGKAPKLLIYAASSLQSGVPSRFSGSGSGTDFTLTISSLQPEDFATYYCQQSYSTPYSFGQGTKVEIK
B17: G2(2H11) scFv (scFv, V domains shown)
VH: QVQLVQSGAEVKKPGASVKVSCKASGYTFSDYYVHWVRQAPGQGLEWMGWINPNSGGTNYAQKFQGRVTMTRDTSTSTVYMELSSLRSEDTAVYYCARGEWFDPWGQGTLVTVSS
VL: DIQMTQSPSSLSASVGDRVTITCRASQSISSWLAWYQQKPGKAPKLLIYAASTLQSGVPSRFSGSGSGTDFTLTISSLQPEDFATYYCQQSYSTPFTFGPGTKVDIK
B18: G2(2C11) scFv (scFv, V domains shown)
VH: QVQLVQSGAEVKKPGASVKVSCKASGGTFNNYAFSWVRQAPGQGLEWMGWINPNSGGTNYAQKFQGRVTMTRDTSTSTVYMELSSLRSEDTAVYYCARDGVAVASDYWGQGTLVTVSS
VL: DIQMTQSPSSLSASVGDRVTITCRASQGISNYLAWYQQKPGKAPKLLIYAASTLQSGVPSRFSGSGSGTDFTLTISSLQPEDFATYYCQQSYSVPYSFGQGTKLEIK
B19: G2(1G01) scFv (scFv, V domains shown)
VH: QVQLVQSGAEVKKPGASVKVSCKASGYTFTSYGISWVRQAPGQGLEWMGWMNPNSGGTNYAQKFQGRVTMTRDTSTSTVYMELSSLRSEDTAVYYCARGEWLDYWGQGTLVTVSS
VL: DIQMTQSPSSLSASVGDRVTITCRASQTISSWLAWYQQKPGKAPKLLIYAASSLQSGVPSRFSGSGSGTDFTLTISSLQPEDFATYYCQQSYGVPYTFGQGTKVEIK
B20: G2(1B10) scFv (scFv, V domains shown)
VH: EVQLLESGAEVKKPGASVKVSCKASGYTFTSYGISWVRQAPGQGLEWMGWINPYSGGTNYAQKLQGRVTMTRDTSTSTVYMELSSLRSEDTAVYYCARANWLDYWGQGTLVTVSS
VL: DIQMTQSPSSLSASVGDRVTITCRASQSISSWLAWYQQKPGKAPKLLIYAASTLQSGVPSRFSGSGSGTDFTLTISSLQPEDFATYYCQQSYSSPYTFGPGTKVDIK
B21: G2(1A10) scFv (scFv, V domains shown)
VH: QVQLVQSGAEVKKPGASVKVSCKASGGTFSSYAFSWVRQAPGQGLEWMGWINPDTGYTRYAQKFQGRVTMTRDTSTSTVYMELSSLRSEDTAVYYCARGDYTGNWYFDLWGRGTLVTVSS
VL: DIQMTQSPSSLSASVGDRVTITCRASRDIGRAVGWYQQKPGKAPKLLIYAASSLQSGVPSRFSGSGSGTDFTLTISSLQPEDFATYYCQQLDSYPFTFGPGTKVDIK
B22: G2(1G03) scFv (scFv, V domains shown)
VH: EVQLLESGAEVKKPGASVKVSCKASGYTFTSYAMNWVRQAPGQGLEWMGWMNPNSGGTKYAQKFQGRVTMTRDTSTSTVYMELSSLRSEDTAVYYCAREGPAALDVWGQGTLVTVSS
VL: DIQMTQSPSSLSASVGDRVTITCRASQGISRWLAWYQQKPGKAPKLLIYAASTLQPGVPSRFSGSGSGTDFTLTISSLQPEDFATYYCQQSYIAPFTFGPGTKVDIK

The binders below were run against T1, HLA-A*01:01_… (HLA-PEPTIDE target G2), recombinant biotinylated complex (human, enzymatically biotinylated (BirA)) (assay: phage panning, scFv ELISA;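 also: scFv binders from three to four bead panning rounds, tested as PPEs by ELISA on streptavidin plates carrying peptide-HLA complex (2 µg/ml), detected via anti-V5 and HRP anti-mouse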).
T1 construct: also called G2-pHLA
Procedure: Phage library screening was carried out according to the overall screening design described above. Three to four rounds of bead-based panning were performed to identify scFv binders to each peptide-HLA complex. For each round of panning, an aliquot of starting phage was set aside for input titering and the remaining phage was depleted three times against Dynabead M-280 streptavidin beads (Life Technologies) followed by a depletion against Streptavidin beads pre-bound with 100 μmoles of pooled negative peptide-HLA complexes. For the first round of panning, 100 μmoles of peptide-HLA complex bound to streptavidin beads was incubated with depleted phage for 2 hours at room temperature with rotation. Three five-minute washes with 0.5% BSA in 1×PBST (PBS+0.05% Tween-20) followed by three five-minute washes with 0.5% BSA in 1×PBS were utilized to remove any unbound phage to the peptide-HLA complex bound beads. To elute the bound phage from the washed beads, 1 ml 0.1M TEA was added and incubated for 10 minutes at room temperature with rotation. The eluted phage was collected from the beads and neutralized with 0.5 ml 1M Tris-HCl pH 7.5. The neutralized phage was then used to infect log growth TG-1 cells (OD₆₀₀=0.5) and after an hour of infection at 37° C., cells were plated onto 2YT media with 100 μg/ml carbenicillin and 2% glucose (2YTCG) agar plates for output titer and bacterial growth for subsequent panning rounds.
96-well and/or 384-well streptavidin coated plates (Pierce) were coated with 2 μg/ml peptide-HLA complex in HLA buffer and incubated overnight at 4° C. Plates were washed three times between each step with PBST (PBS+0.05%). The antigen coated plates were blocked with 3% BSA in PBS (blocking buffer) for 1 hour at room temperature. After washing, scFv PPEs were added to the plates and incubated at room temperature for 1 hour. Following washing, mouse anti-v5 antibody (Invitrogen) in blocking buffer was added to detect scFv and incubated at room temperature for 1 hour. After washing, HRP-goat anti-mouse antibody (Jackson ImmunoResearch) was added and incubated at room temperature for 1 hour.
B1: binds. B2: binds. B3: binds. B4: binds. B5: binds. B6: binds. B7: binds. B8: binds. B9: binds. B10: binds. B11: binds. B12: binds. B13: binds. B14: binds. B15: binds. B16: binds. B17: binds. B18: binds. B19: binds. B20: binds. B21: binds. B22: binds.

— US20240059797A1 (GRITSTONE BIO, published 2024)
